Assay: yeast display, Sf9 membrane polyspecificity reagent, FACS + sequencing; frameworks hold sequencing errors
Procedure, shortened: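 After 36–48 hours of galactose induction, yeast (Saccharomyces cerevisiae BJ5465) displaying a synthetic nanobody library were stained at 4 °C for 1 hour with 10% biotinylated, detergent-solubilized Sf9 membrane reagent. Streptavidin microbeads enriched the stained cells before FACS sorting into low and high (top ~1%) gates on anti-HA and streptavidin fluorescence. Each clone's polyreactivity label reflects its gate of origin.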

Row | Sequence | polyreactivity (PSR sort gate)
1 | QVQLVESGGGLVQAGGSLRLSCAASGSTFSPYTMGWYRQAPGKERELVAAITWSGVTTYYADSVKGRFTISRDNAKNTVYLQMNSLKPEDSAVYYCAAGRTRRKFDYWGQGTQVTVSS | low polyreactivity
2 | QVQLVESGGGLVQAGGSLRLSCAASGRPFTWYALGWYRQAPGKEREVVAAISKSGGSTYYADSVKGRFTISRDNAKNTVYLQMNSLKPEDTAVYYCNADFYGYFLGYGYCGQGTQVTVSS | low polyreactivity
3 | QVQLVESGGGLVQAGGSLRLSCAPSGSIFWLYDMGWYRPAPGKERELVAAIDSGDSTKYADSVKGRFTISRDNAKNTVYLQMNSLKPEDTAVYYCNASRRYHVRAPYDYWGQGTQVTVSS | low polyreactivity
4 | QVQLVESGGGLVQAGGSLRLSCAASGRTFGSYAMGWYRQAPGKERELVAGISWSGGITYYADSVKGRFTISRDNAKNTVYLQMNSLKPEDTAVYYCAASPRRDENAGRVRLYYWGQGTQVTVSS | high polyreactivity
5 | QVQLVESGGGLVQAGGSLRLSCAASGSIFRYYVMGWYRQAPGKERELVASISYSVGRTYYADSVKGRFTISRDNAKNTVYLQMNSLKPEDTAVYYCAADRYWPYYSAYYTSYRMDYWGQGTQVTVSS | high polyreactivity
6 | QVQLVESGAGLVKAGCSLRISCAASGSSFVTYDMGWYRQAPGKERELVAGISGSGSTNYADSVKGRFTISRDNAKNTVYLQMNSLKPEDTAVYYSAAEYEYLWSQYLTDYGYDYWGQGTQVTVSS | low polyreactivity
7 | QVHLVESGAGLVHAGGRLRLSCAASGRIFFGYAMGWYRQAPGKERELVAGITSSTGRTYYADSVKGRFTISRDNAKNTVYLQMNSVKPEDTAVYYCAADTWYRYDYWGQGTQVTESS | low polyreactivity
8 | QVQLVESGGGLVQAGGSLRLSCAASGSIFVRNAMGWYRQAPGKEREFVAIRFSGATTYYADSVKGRFTISRDNAKNTVYLQMNSLKPEDTAVYYCAAVARTYGRTSYYWGQGTQVTVSS | high polyreactivity
9 | QVQLVESGGGLVQAGGILRLSCAASGFIFAPNAMGWYRQPPGKERELVAAISASGGSTYYADSVKGRFTISRDNAKNTVYLQMNSLKPEDTAVYYCAADRTFSSFPEYNYWGQGTQVTVSS | low polyreactivity
10 | QVQLVESGGGLVQAGGSLRLSCAASGSIFAPYAMGWYRQAPGKERELVAAISSSGGSTYYADSVKGRFTISRDNAKNTLYLQMNSLKPEDTAVYYCAAETYHGLYDYWGQGTQVTVSS | low polyreactivity
11 | QVQLVESGGRLVQAGGSLRLSCAASGSTFRGYAMGWYIPAPGKEWELVATITSGGSTKYADSVKGRFTISRDNAKNTVYLQMNSLKPEDTAVYYCNAVPRSWSPYRHWFDYWGQGTQVTVSS | low polyreactivity
12 | QVQLVESGVGLVQAGGSLRLICAASGSTFYRNAMGWYRHAPGKERELVAGISRRGGSTYYADSVKGRFTISRDIAKNRVYLQMNSLIPEDTAVYYCNADYPGIPHNDYWGQGTQVNVSS | low polyreactivity
13 | QVQLVESGGGLVQAGGSLRLSCAASGRIFYINTMGWYRQAPGKERELVAAISRRGGSTYYADSVKGRFTISRDNAKNTVYLQMNSLKPEDTAVYYCAARDQYGPGYRSESLDSWGQGTQVTVSS | low polyreactivity
14 | QVQLVESGGGLVQAGGSHRLSCAASRSIFPYNAKGWYRQAPGKATELVATISNSGGSTYYADSVKGRFTISRDTAMNTVYLQMNSLKPEDTAVYYCADDRSVYLPAPDPALDYWGQGTQLTVSS | low polyreactivity
15 | QVQLVESGGGLVQAGGSLRLSCAASGLNFSYYAMGWYRQAPGKERELVAAINSGGSTYYADSVKGRFTISRDNAKNTVYLQMNRLKQEDTAVYYCAAHLWYHGHLFDYWGQGTQVTVSS | high polyreactivity
16 | QVQLVESGGGLVQAGGSLRLSCAASGSTFLRNDMGWYRQAPGKERELVAAITSGGITNYADSVKGRFTISRDNAKNTVSLQMNSLKPEDTAVYYCNKDSDLHHYHTEFDYWGQGTQVTVSS | low polyreactivity

Row | Sequence | polyreactivity (PSR sort gate)
17 | QVQLVVSGGGLVQAGGSLRLSCAASGITFYEYAMGWYRQSPGKESELVATITSGGNTNYADSVKGRFTISRDNAKNTGYLLMNSLIPEDTSVYYCAASVGYYSRYGYGYWGQGTQVTVSS | low polyreactivity
18 | QVQLVESVGGLVQAGGSLRLSCAASGSTFWTNAMGLYRQAPGKERELVATISKTTGRTYYADSVKGRFTISRDNAKNTVYLQMNSLKPEDTAVYYCAAEPYSWDTWVDYDYWGQGTQVTVSS | low polyreactivity
19 | QVQLVESGGGLVQAGGSLRLSCAASGSIFLSNAMVWYRQAPGKERDLVADIDWTGGDTYYADSVKGRFTISRDNAKNTVYLQMNSLKPEDTAVYYCAADYGSRNLLTEYGYWGQGTQVTVSS | low polyreactivity
20 | QVQLVESGGGLVQAAGSLRLSCAASGSTFADNAMGWYRQAPGKEREMVAANSRRGGSTYYADSVKGRFTISLDNAKNTVYLQMNSLKPEDTAVYYCAKPSGLVVNQYRAGMEYWGQGTQVTVSS | high polyreactivity
21 | QVQLVESGGGLVQAGGSLRLSCAASGFIFVHNAMGWYRPAPGKERELVAAIRSRGGSTYYADSVKGRFTISRDNAKNTVYLQMNSLKPEDTAVDDCAADGAVVSSSRKFGYWGQGTQVTVSS | low polyreactivity
22 | QVQLVESGGGLVQAGGSLRLSCAASGSIISWYVMGWYRQAPGKERELVAAITWGGGSRYYADSVKGRFTISRDNAKNTVYLQMNSLKPEDTAVYYCEFDYWGQGTQVSVSS | low polyreactivity
23 | QVQIEESGGGLVQAGGSLRLSCAASGITFYWYARGWYRQAPVTERELVAAITRSGSSTYYADSVKGRFTISRDNAKNTVYLQMYSLKPEDTAVDYCAALPYKPYYDAYDYWGQGTQVTVSS | high polyreactivity
24 | QVQLVESGGGLVQAGGSLRLSCAASGSIFYNYAMGWYRQAPGKEREFVAGITRSGGTTSYADSVKGRFTISRDNAKNTVYLQMNSLKPEDTAVYYCAAVVYLQAWYGYWDYYYWGQGTQVTVSS | high polyreactivity
25 | QVQLVESGGGLVQAGGSLRLSCAASGRTFSWYAMGWYRPAPGQERELVAAITYSGGNTYYADSVKGRFTISRDNAKNTVYLQMNSLKPEDTAVYYCAKYGVTGQGSWSQRMGYWGQGTQVTVSS | high polyreactivity
26 | QVQLVESGGGLVQAGGSLRLSCAASGSTFKWYGMGWYRQAPGKERELVATINYSSSTTYYADSVKGRFTISRDNAKNTVYLQMNSLKPEDTAVYYCAKGVYWGTKSTYDYWGQGTQVTVSS | high polyreactivity
27 | QVQLVESGGGLVQAGGSLRLSCASSGFIFFSYAMGWYRQAPGKERELVASISRSGGTTYYADSVKGRFTISRDNAKNTVYLQMNSLKPEDTAVYYCAARTYSYYSRDYWGQVTQVTVSS | high polyreactivity
28 | QVQLVESGGGLVQAGGSLRLSCAASGRILGYYAMGWYRQAPGKERDLVAAISRAGSTNYADSVKGRFTISRDNAKNTVYLQMNSLKAEDTAVYYCAARPYRRGYNYWGQGTQVTVSS | high polyreactivity
29 | QVQLVESGGGLVQAGGSLRLSCAASGSTFLYYEMGWYRQAPGKDRELVAAISASGGSTYYADSVKGRFTISRDNAKSTVYLQMNSLKPEDTAVYYCAAVYHWVRPILYYWGQGTQVTVSS | high polyreactivity
30 | QVQLVESGGGLVQAGGSLRLSCAASGRNFNSYAMGWYRQAPGKERELVAAISWNGGSTYYADSVKGRFTISRDNAKITVYLQMNSLKPEDTAVYYCAATYLLRGDAYYSWGQGTQVTVSS | high polyreactivity
31 | QVQLVESGGGLVQAGGSLRLSCAASGFTFGHYALGWYRQATGKERELVAAITRSGGNTYYADSVKGRFTISRYNAKNTVYLQMNSLKPEDTAVYYCAARLGWVYYSRSRYGYWGQGTQVTVSS | high polyreactivity
32 | QVQLVETGGGLVQAGGSLRLSCAASGSIFPGNAMGWYRQAPGKERELVAVIDFSGASTYYADSVKGRFTISRDNAKNTVYLQMNSLKPEDTADYWGQGTQVTVSS | low polyreactivity

From the nanobody polyreactivity screen of Harvey et al. (2022)
